Laboratory results from PMC3690481 (2013).
Where two headings read alike, the source gives them in different places.

B1: NEMO UBAN domain (domain or fragment)
chain: GMQLEDLKQQLQQAEEALVAKQEVIDKLKEEAEQHKIVMETVPVLKAQADIYKADFQAERQAREKLAEKKELLQEQLEQLQREYSKLKAS
B2: OTULIN C129A TQK100-102AAA (enzyme)
chain: MSRGTMPQPEAWPGASCAETPAREAAATARDGGKAAASGQPRPEMQCPAEHEEDMYRAADEIEKEKELLIHERGASEPRLSVAPEMDIMDYCKKEWRGNAAAATCMKMGYEEVSQKFTSIRRVRGDNYAALRATLFQAMSQAVGLPPWLQDPELMLLPEKLISKYNWIKQWKLGLKFDGKNEDLVDKIKESLTLLRKKWAGLAEMRTAEARQIACDELFTNEAEEYSLYEAVKFLMLNRAIELYNDKEKGKEVPFFSVLLFARDTSNDPGQLLRNHLNQVGHTGGLEQVEMFLLAYAVRHTIQVYRLSKYNTEEFITVYPTDPPKDWPVVTLIAEDDRHYNIPVRVCEETSL

What was measured:
FlAsH-tagged Met1-diUb [1] = target: T1, FlAsH-tagged Met1-diUb (UniProt P0CG48 1-76; P0CG48 1-71, Lumio Green (FlAsH) on the C-terminal WCCPGCC motif); experiment: FP
FlAsH-tagged Met1-diUb [2] = target: T1, FlAsH-tagged Met1-diUb; experiment: FP; remark: listed apart in the source

| Kd (FlAsH-tagged Met1-diUb [1]) | Kd (FlAsH-tagged Met1-diUb [2]) | Binder |
| --- | --- | --- |
| 3.7 µM |  | B1 |
|  | 36.1 µM | B2 |
